According to patent US20120316324A1 (UCB, published 2012):

Assays:
hIL13 [1] = molecular target: T1, hIL13 (human, UniProt P35225 35-146, limits assumed); test: SPR Biacore 3000, construct captured, 20 nM hIL13 injected
T1 construct: also called human IL-13

human serum albumin = molecular target: T2, human serum albumin (human, UniProt P02768 25-609); test: SPR (Biacore 3000), construct captured by anti human CH1 antibody on CM5 chip, HSA as analyte
T2 construct: also called HSA; HumanSA

hIL13 [2] = molecular target: T1, hIL13; test: SPR (Biacore 3000), construct captured by anti human CH1 antibody on CM5 chip, hIL13 as analyte (single concentration 20 nM)

B1: 645Fv-652Fab (L-3xG4S, H-3xG4S) (bispecific antibody, V domains shown)
VH: EVQLLESGGGLVQPGGSLRLSCAVSGIDLSNYAINWVRQAPGKGLEWIGIIWASGTTFYATWAKGRFTISRDSTTVYLQMNSLRAEDTAVYYCARTVPGYSTAPYFDLWGQGTLVTVSS
VL: DIVMTQSPSSVSASVGDRVTITCQSSPSVWSNFLSWYQQKPGKAPKLLIYEASKLTSGVPSRFKGSGSGTDFTLTISSLQPEDFATYYCGGGYSSISDTTFGGGTKVEIK
For B1, the Kd (hIL13 [1]) was ~0.1 nM, the Kd (human serum albumin) was 1.22 nM and the koff (human serum albumin) was 0.000311 s⁻¹. For the same binder, the kon (human serum albumin) was 255000 M⁻¹ s⁻¹, the Kd (hIL13 [2]) was 0.126 nM and the koff (hIL13 [2]) was 0.000177 s⁻¹. It also gave a kon (hIL13 [2]) of 1.4e+06 M⁻¹ s⁻¹.
